Reference: article doi:10.1101/2022.10.20.22281069 (medRxiv, 2022)

B1: FEN1 PIP-box peptide (peptide)
peptide: STQGRLDDFFKVTGSL
B2: pol δ p66 PIP-box peptide (peptide)
peptide: KANRQVSITGFFQRK
B3: RNaseH2B PIP-box peptide (peptide)
peptide: DKSGMKSIDTFFGVKNKKKIGKV

Target: PCNA-WT (Proliferating Cell Nuclear Antigen, wild type) (human, UniProt P12004 1-261)
Test: ITC

PCNA-WT (Proliferating Cell Nuclear Antigen, wild type), sequence (P12004 whole entry): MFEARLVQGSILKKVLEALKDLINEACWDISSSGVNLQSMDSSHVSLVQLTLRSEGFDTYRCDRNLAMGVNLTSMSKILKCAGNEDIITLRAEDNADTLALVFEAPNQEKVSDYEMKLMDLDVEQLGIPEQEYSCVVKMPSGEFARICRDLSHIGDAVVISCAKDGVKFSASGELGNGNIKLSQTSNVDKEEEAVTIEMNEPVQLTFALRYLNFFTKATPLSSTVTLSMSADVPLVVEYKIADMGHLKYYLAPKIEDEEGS

Binder | binding result
B1 | binds
B2 | binds
B3 | binds
